Reference: paper PMC10502159 (2023)
Values belong to the binder of their own block, whether it stands above or below them.

Legend:
[1] = target: T1, TLR4 1-631 (Homo sapiens, UniProt O00206); assay: SPR
[2] = target: RAGE 1-344 (Homo sapiens, UniProt Q15109); assay: SPR
[3] = target: T1, TLR4 1-631; assay: SPR (steady state)

T1 sequence (O00206 1-631): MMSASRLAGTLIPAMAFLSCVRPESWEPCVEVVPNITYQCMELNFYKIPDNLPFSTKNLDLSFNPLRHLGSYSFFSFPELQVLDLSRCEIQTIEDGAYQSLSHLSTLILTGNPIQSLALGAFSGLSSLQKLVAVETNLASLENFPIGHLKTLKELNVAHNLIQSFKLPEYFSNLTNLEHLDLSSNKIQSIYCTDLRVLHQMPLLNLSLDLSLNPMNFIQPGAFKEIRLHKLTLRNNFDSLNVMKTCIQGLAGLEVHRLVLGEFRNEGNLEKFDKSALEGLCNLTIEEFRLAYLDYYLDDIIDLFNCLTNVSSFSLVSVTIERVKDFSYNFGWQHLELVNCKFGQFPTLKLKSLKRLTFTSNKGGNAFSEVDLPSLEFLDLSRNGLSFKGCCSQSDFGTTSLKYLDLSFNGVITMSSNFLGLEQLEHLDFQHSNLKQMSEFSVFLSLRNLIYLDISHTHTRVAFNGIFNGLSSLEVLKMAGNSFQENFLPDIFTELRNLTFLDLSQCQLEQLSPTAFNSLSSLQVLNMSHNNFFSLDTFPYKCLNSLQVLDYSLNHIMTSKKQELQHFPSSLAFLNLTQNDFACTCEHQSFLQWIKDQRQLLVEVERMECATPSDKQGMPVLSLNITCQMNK
Sequence of RAGE 1-344 (Q15109 1-344): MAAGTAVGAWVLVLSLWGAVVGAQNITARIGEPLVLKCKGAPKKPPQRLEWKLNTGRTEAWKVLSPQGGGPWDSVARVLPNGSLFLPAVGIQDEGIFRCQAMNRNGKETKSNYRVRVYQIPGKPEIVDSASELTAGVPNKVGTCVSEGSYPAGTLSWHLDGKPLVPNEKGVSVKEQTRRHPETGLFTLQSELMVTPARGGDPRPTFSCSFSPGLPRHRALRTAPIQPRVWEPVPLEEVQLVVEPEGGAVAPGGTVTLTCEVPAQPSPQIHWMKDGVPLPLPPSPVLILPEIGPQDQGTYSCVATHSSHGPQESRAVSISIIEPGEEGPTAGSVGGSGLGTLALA

Kd [1]: 1140 nM
Kd [2]: 30.4 nM
B1: procathepsin L (pCTS-L) 17-333 (protein)
chain: ATLTFDHSLEAQWTKWKAMHNRLYGMNEEGWRRAVWEKNMKMIELHNQEYREGKHSFTMAMNAFGDMTSEEFRQVMNGFQNRKPRKGKVFQEPLFYEAPRSVDWREKGYVTPVKNQGQCGSCWAFSATGALEGQMFRKTGRLISLSEQNLVDCSGPQGNEGCNGGLMDYAFQYVQDNGGLDSEESYPYEATEESCKYNPKYSVANDTGFVDIPKQEKALMKAVATVGPISVAIDAGHESFLFYKEGIYFEPDCSSEDMDHGVLVVGYGFESTESDNNKYWLVKNSWGEEWGMGGYVKMAKDRRNHCGIASAASYPTV
modifications: mAb20 pre-exposed

Kd [1]: 20.3 nM
Kd [2]: 3.1 nM
B2: procathepsin L (pCTS-L) 17-333 (protein)
chain: B1 chain
modifications: control c-mAb pre-exposed

Kd [3]: < 28.3 nM
B3: procathepsin L (pCTS-L) 17-333 (protein)
chain: B1 chain
